Test system: Patients with Type 2 Diabetes Insufficiently Controlled with Insulin Glargine with or without Metformin
Experiment: Treatment-emergent adverse events, 26-week study
Assay type: in vivo, human
Conditions: in vivo
Text: FIG. 6—Graphical study design. ^1 Insulin glargine should be injected subcutaneously once daily at dinner or breakfast time (according to patient's/investigators' preference). […] Meal used for insulin glulisine dosing should remain the same throughout the 26-week treatment period. ^4 Injection of insulin glulisine prior to breakfast, lunch and dinner.
Co-primary endpoints at 26 weeks were (1) non-inferiority (95% CI upper bound <0.4%) in HbA1c reduction with LIXI vs GLU-1 and (2) for LIXI vs GLU-3, either non-inferiority in HbA1c reduction (2a) OR superiority (one-sided α≤0.025) in body weight change (2b). FPG, PPG, IG dose, composite outcomes, AEs, and hypoglycemia were assessed.

Insulin Glulisine QD: insulin glulisine once daily, added to insulin glargine ± metformin (comparator arm)
Patients with treatment emergent SAE: Decreased appetite: 0 n (%) | Patients with treatment emergent SAE: Dehydration: 1 (0.3%) n (%) | Patients with treatment emergent SAE: Diabetic bullosis: 0 n (%) | Patients with treatment emergent SAE: Epigastric discomfort: 0 n (%) | Patients with treatment emergent SAE: Erysipelas: 0 n (%) | Patients with treatment emergent SAE: Gastric ulcer haemorrhage: 0 n (%) | Patients with treatment emergent SAE: Gastrointestinal disorders (SOC): 0 n (%) | Patients with treatment emergent SAE: Hepatic mass: 0 n (%) | Patients with treatment emergent SAE: Hepatobiliary disorders (SOC): 0 n (%) | Patients with treatment emergent SAE: Hypertension: 0 n (%) | Patients with treatment emergent SAE: Hypoglycaemia: 1 (0.3%) n (%) | Patients with treatment emergent SAE: Hypoglycaemic unconsciousness: 2 (0.7%) n (%) | Patients with treatment emergent SAE: Incisional hernia: 1 (0.3%) n (%) | Patients with treatment emergent SAE: Infections and infestations (SOC): 1 (0.3%) n (%) | Patients with treatment emergent SAE: Injury, poisoning and procedural complications (SOC): 4 (1.3%) n (%) | Patients with treatment emergent SAE: Invasive ductal breast carcinoma: 0 n (%) | Patients with treatment emergent SAE: Metabolism and nutrition disorders (SOC): 2 (0.7%) n (%) | Patients with treatment emergent SAE: Myocardial infarction: 1 (0.3%) n (%) | Patients with treatment emergent SAE: Myocardial ischaemia: 0 n (%) | Patients with treatment emergent SAE: Neoplasm malignant: 0 n (%) | Patients with treatment emergent SAE: Neoplasms benign, malignant and unspecified (incl cysts and polyps) (SOC): 0 n (%) | Patients with treatment emergent SAE: Nervous system disorders (SOC): 3 (1.0%) n (%) | Patients with treatment emergent SAE: Neuritis cranial: 1 (0.3%) n (%) | Patients with treatment emergent SAE: Pancreatic carcinoma metastatic: 0 n (%) | Patients with treatment emergent SAE: Penile infection: 0 n (%) | Patients with treatment emergent SAE: Renal and urinary disorders (SOC): 0 n (%) | Patients with treatment emergent SAE: Renal failure: 0 n (%) | Patients with treatment emergent SAE: Renal failure acute: 0 n (%) | Patients with treatment emergent SAE: Septic arthritis staphylococcal: 0 n (%) | Patients with treatment emergent SAE: Skin and subcutaneous tissue disorders (SOC): 0 n (%) | Patients with treatment emergent SAE: Skin ulcer haemorrhage: 0 n (%) | Patients with treatment emergent SAE: Uterine cancer: 0 n (%) | Patients with treatment emergent SAE: Vascular disorders (SOC): 0 n (%) | TEAE leading to permanent treatment discontinuation: Abdominal pain: 0 n (%) | TEAE leading to permanent treatment discontinuation: Any class: 2 (0.7%) n (%) | TEAE leading to permanent treatment discontinuation: Ascites: 0 n (%) | TEAE leading to permanent treatment discontinuation: Blood and lymphatic system disorders (SOC): 0 n (%) | TEAE leading to permanent treatment discontinuation: Blood glucose decreased: 1 (0.3%) n (%) | TEAE leading to permanent treatment discontinuation: Cardiac disorders (SOC): 0 n (%) | TEAE leading to permanent treatment discontinuation: Cardiac failure chronic: 0 n (%) | TEAE leading to permanent treatment discontinuation: Cough: 0 n (%) | TEAE leading to permanent treatment discontinuation: Decreased appetite: 0 n (%) | TEAE leading to permanent treatment discontinuation: Dehydration: 0 n (%) | TEAE leading to permanent treatment discontinuation: Diabetic bullosis: 0 n (%) | TEAE leading to permanent treatment discontinuation: Diarrhoea: 0 n (%) | TEAE leading to permanent treatment discontinuation: Dyspepsia: 0 n (%) | TEAE leading to permanent treatment discontinuation: Epigastric discomfort: 0 n (%) | TEAE leading to permanent treatment discontinuation: Gastric ulcer haemorrhage: 0 n (%) | TEAE leading to permanent treatment discontinuation: Gastrointestinal disorders (SOC): 0 n (%) | TEAE leading to permanent treatment discontinuation: Headache: 0 n (%) | TEAE leading to permanent treatment discontinuation: Hepatic mass: 0 n (%) | TEAE leading to permanent treatment discontinuation: Hepatobiliary disorders (SOC): 0 n (%) | TEAE leading to permanent treatment discontinuation: Hot flush: 0 n (%) | TEAE leading to permanent treatment discontinuation: Hypoglycaemia: 0 n (%) | TEAE leading to permanent treatment discontinuation: Immune system disorders (SOC): 0 n (%) | TEAE leading to permanent treatment discontinuation: Invasive ductal breast carcinoma: 0 n (%) | TEAE leading to permanent treatment discontinuation: Investigations (SOC): 1 (0.3%) n (%) | TEAE leading to permanent treatment discontinuation: Lymphadenopathy: 0 n (%) | TEAE leading to permanent treatment discontinuation: Metabolism and nutrition disorders (SOC): 0 n (%) | TEAE leading to permanent treatment discontinuation: Metastases to liver: 0 n (%) | TEAE leading to permanent treatment discontinuation: Metastases to peritoneum: 0 n (%) | TEAE leading to permanent treatment discontinuation: Nasal congestion: 0 n (%) | TEAE leading to permanent treatment discontinuation: Nausea: 0 n (%) | TEAE leading to permanent treatment discontinuation: Neoplasms benign, malignant and unspecified (incl cysts and polyps) (SOC): 0 n (%) | TEAE leading to permanent treatment discontinuation: Nervous system disorders (SOC): 1 (0.3%) n (%) | TEAE leading to permanent treatment discontinuation: Pancreatic carcinoma metastatic: 0 n (%) | TEAE leading to permanent treatment discontinuation: Renal and urinary disorders (SOC): 0 n (%) | TEAE leading to permanent treatment discontinuation: Renal failure: 0 n (%) | TEAE leading to permanent treatment discontinuation: Respiratory, thoracic and mediastinal disorders (SOC): 0 n (%) | TEAE leading to permanent treatment discontinuation: Seasonal allergy: 0 n (%) | TEAE leading to permanent treatment discontinuation: Skin and subcutaneous tissue disorders (SOC): 0 n (%) | TEAE leading to permanent treatment discontinuation: Skin ulcer haemorrhage: 0 n (%) | TEAE leading to permanent treatment discontinuation: Thrombosis: 0 n (%) | TEAE leading to permanent treatment discontinuation: Tremor: 1 (0.3%) n (%) | TEAE leading to permanent treatment discontinuation: Vascular disorders (SOC): 0 n (%) | TEAE leading to permanent treatment discontinuation: Vomiting: 0 n (%) | Total number of patients with any event adjudicated as pancreatitis by PSAC: 0 n (%)

Source: patent publication US10434147B2, “Treatment type 2 diabetes mellitus patients” (Sanofi-Aventis Deutschland GmbH, priority 2015, dated 2019)
